“And” between values parts separate entries of the source, which are not always exact repeats. Identical values can stand only once.
B6: HIS6-AtC53 (natural protein)
chain: not shown
notes: C53, Arabidopsis thaliana; Monomeric by native MS; source: E. coli Rosetta2(DE3)pLysS, purified (HisTrap, ion exchange, SEC)

Tests used:
Conditions in all cases: both partners purified
HIS6-HsC53 = target: T1, HIS6-HsC53 (human, UniProt Q96JB5 1-506); assay: SPR; competition, apparent; GST-GABARAP or GST-ATG8A captured; increasing AIM wt peptide premixed with 10 µM HsC53 or AtC53; 25°C, 50 mM sodium phosphate pH 7.0, 100 mM NaCl, 0.05% Tween-20, 0.1% BSA
T1 construct: C53 (CDK5RAP3), human; Monomeric by native MS; source: E. coli Rosetta2(DE3)pLysS, purified (HisTrap, ion exchange, SEC)
T1 sequence (Q96JB5 whole entry): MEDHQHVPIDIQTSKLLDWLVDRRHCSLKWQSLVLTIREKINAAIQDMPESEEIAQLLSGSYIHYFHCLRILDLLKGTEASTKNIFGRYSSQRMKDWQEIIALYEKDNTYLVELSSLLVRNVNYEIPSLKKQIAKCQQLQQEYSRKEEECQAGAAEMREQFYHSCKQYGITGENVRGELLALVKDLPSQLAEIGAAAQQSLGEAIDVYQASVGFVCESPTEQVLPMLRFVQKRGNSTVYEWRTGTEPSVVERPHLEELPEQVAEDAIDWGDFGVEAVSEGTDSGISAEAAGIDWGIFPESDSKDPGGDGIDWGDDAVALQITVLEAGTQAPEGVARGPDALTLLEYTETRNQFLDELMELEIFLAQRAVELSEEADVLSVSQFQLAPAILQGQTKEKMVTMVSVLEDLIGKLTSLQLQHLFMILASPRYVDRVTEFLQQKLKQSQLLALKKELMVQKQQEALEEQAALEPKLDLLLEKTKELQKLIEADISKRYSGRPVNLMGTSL

HIS6-ATG8A [1] = target: T2, HIS6-ATG8A (Arabidopsis thaliana, UniProt Q8LEM4 1-117); assay: ITC; 25°C, 50 mM sodium phosphate pH 7.0, 100 mM NaCl; cell 40 µM GABARAP or ATG8A, syringe 600 µM peptide or 250 µM IDR; one-set-of-sites model
T2 construct: ATG8A, Arabidopsis thaliana; source: E. coli Rosetta2(DE3)pLysS, purified (HisTrap, ion exchange, SEC)
T2 sequence (looked up): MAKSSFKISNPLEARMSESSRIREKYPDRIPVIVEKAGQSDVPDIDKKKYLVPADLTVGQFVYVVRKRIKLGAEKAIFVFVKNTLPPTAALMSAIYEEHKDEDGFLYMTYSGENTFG

HIS6-ATG8A [2] = target: T2, HIS6-ATG8A; assay: native MS; proteins exchanged into ammonium acetate, nanoelectrospray, Synapt G2Si; C53 1-5 µM or IDR 2.5 µM with 5-20 µM ATG8A or GABARAP
HIS6-GABARAP = target: T3, HIS6-GABARAP (human, UniProt O95166 1-117); assay: ITC; 25°C, 50 mM sodium phosphate pH 7.0, 100 mM NaCl; cell 40 µM GABARAP or ATG8A, syringe 600 µM peptide or 250 µM IDR; one-set-of-sites model
T3 construct: GABARAP, human ATG8 isoform; source: E. coli Rosetta2(DE3)pLysS, purified (HisTrap, ion exchange, SEC)

HIS6-AtC53 = target: B6; assay: SPR; competition, apparent; GST-GABARAP or GST-ATG8A captured; increasing AIM wt peptide premixed with 10 µM HsC53 or AtC53; 25°C, 50 mM sodium phosphate pH 7.0, 100 mM NaCl, 0.05% Tween-20, 0.1% BSA
Sequence of HIS6-AtC53 (Q9FG23 whole entry): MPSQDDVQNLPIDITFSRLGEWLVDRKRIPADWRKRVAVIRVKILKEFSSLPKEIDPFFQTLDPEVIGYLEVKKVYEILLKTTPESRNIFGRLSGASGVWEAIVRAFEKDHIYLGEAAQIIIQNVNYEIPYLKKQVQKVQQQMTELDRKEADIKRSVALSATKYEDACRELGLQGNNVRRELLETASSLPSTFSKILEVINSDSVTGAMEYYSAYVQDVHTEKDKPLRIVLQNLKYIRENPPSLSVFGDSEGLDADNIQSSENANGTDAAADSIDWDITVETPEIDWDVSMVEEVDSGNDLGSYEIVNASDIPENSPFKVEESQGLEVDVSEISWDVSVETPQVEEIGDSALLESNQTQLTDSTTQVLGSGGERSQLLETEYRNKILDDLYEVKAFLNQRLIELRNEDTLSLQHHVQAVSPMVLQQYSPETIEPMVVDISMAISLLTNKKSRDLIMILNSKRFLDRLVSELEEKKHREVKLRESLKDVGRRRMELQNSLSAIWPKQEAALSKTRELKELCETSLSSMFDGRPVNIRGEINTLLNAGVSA

B1: GST-GABARAP (natural protein, human, UniProt O95166 1-117, looked up)
chain: MKFVYKEEHPFEKRRSEGEKIRKKYPDRVPVIVEKAPKARIGDLDKKKYLVPSDLTVGQFYFLIRKRIHLRAEDALFFFVNNVIPPTSATMGQLYQEHHEEDFFLYIAYSDESVYGL
notes: GABARAP, human ATG8 isoform; printed MW of GST-GABARAP 42458.87 Da; source: E. coli recombinant expression; bacterial lysate (pull-downs), recombinant protein (SPR); not shown: GST, N-terminal, kept
binding result (HIS6-HsC53): binds

B2: At-sAIM peptide (peptide)
peptide: EPLDFDIDWDLEEEM
notes: peptide with a shuffled AIM (IDWD) in the frame of the AIM wt peptide
binding result (HIS6-ATG8A [1]): binds

B3: AtC53-IDR (purified) (domain or fragment, Arabidopsis thaliana, UniProt Q9FG23 264-341, looked up)
chain: ANGTDAAADSIDWDITVETPEIDWDVSMVEEVDSGNDLGSYEIVNASDIPENSPFKVEESQGLEVDVSEISWDVSVET
notes: intrinsically disordered region of Arabidopsis C53; The expected mass (about 80 residues) is too small for 239-372, the limits of MBP-AtC53^IDR; source: E. coli Rosetta2(DE3)pLysS, purified
stoichiometry N (HIS6-ATG8A [2]): 1 ATG8A per AtC53-IDR and 2 ATG8A per AtC53-IDR and 3 ATG8A per AtC53-IDR

B4: Hs-sAIM peptide (peptide)
peptide: EPLDFDIDWGLEEEM
notes: peptide with a shuffled AIM (IDWG) in the frame of the AIM wt peptide; also called Hs-sAIMC53
binding result (HIS6-GABARAP): binds

B5: GST-ATG8A (natural protein, Arabidopsis thaliana, UniProt Q8LEM4 1-117, looked up)
chain: MAKSSFKISNPLEARMSESSRIREKYPDRIPVIVEKAGQSDVPDIDKKKYLVPADLTVGQFVYVVRKRIKLGAEKAIFVFVKNTLPPTAALMSAIYEEHKDEDGFLYMTYSGENTFG
notes: ATG8A, Arabidopsis thaliana; printed MW of GST-ATG8A 42366.85 Da; also called AtATG8; source: E. coli recombinant expression; bacterial lysate (pull-downs), recombinant protein (SPR, peptide array); not shown: GST, N-terminal, kept
binding result (HIS6-AtC53): binds

B6
stoichiometry N (HIS6-ATG8A [2]): 1 ATG8A per AtC53 and 2 ATG8A per AtC53
